Here are results for 6 molecules from article PMC3688267 (Nature structural & molecular biology, 2011).

Common to all, as to assay: ITC
For orientation: In ITC the heat of successive injections is recorded.

The target of test [1] is T1, human RAP1RCT (RAP1 C-terminal RCT domain, residues 303-399) (human, UniProt Q9NYB0 303-399).
T1 sequence (looked up): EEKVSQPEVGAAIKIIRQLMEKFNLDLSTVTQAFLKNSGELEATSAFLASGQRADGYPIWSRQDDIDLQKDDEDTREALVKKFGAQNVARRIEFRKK

In test [2] the target is T2, S. pombe SpRap1RCT (SpRap1 residues 639-693) (S. pombe, UniProt Q96TL7 639-693).
T2 sequence (looked up): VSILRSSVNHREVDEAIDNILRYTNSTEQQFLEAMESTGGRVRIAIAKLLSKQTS

Another test addresses T3, SpRap1RCT V651R (S. pombe, UniProt Q96TL7 639-693, V651R).
T3 sequence (looked up): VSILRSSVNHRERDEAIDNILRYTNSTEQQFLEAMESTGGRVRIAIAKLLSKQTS

Test [3] concerns the target T4, S. cerevisiae ScRap1RCT (ScRap1 residues 679-827) (S. cerevisiae, UniProt P11938 679-827).
T4 sequence (looked up): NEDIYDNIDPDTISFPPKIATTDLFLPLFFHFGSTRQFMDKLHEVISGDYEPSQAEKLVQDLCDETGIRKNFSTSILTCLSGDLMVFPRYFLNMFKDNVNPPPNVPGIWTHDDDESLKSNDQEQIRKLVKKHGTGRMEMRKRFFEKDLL

B1: human TRF2RBM (RAP1-binding motif, TRF2 residues 275-316) (domain or fragment)
chain: QLRNPPTTIGMMTLKAAFKTLSGAQDSEAAFAKLDQKDLVLP
By Kd is commonly meant a measure of binding affinity in units of concentration. High values mean weaker binding, low ones tighter binding. As to B1, binding in test [1] was characterised by a dissociation constant (Kd) of 16.5 nM.

B2: S. pombe Taz1RBM (Taz1 residues 365-396) (domain or fragment, UniProt P79005 365-396, looked up)
chain: LSVKGMLYDSDSQQILNRLRERVSGSTAQSAD
Regarding B2, binding in test [2] was put at a Kd of 2000 nM. Besides, in the test with SpRap1RCT V651R, the binding result is “binds”.

B3: Taz1RBM L380R (domain or fragment, S. pombe, UniProt P79005 365-396, looked up)
chain: LSVKGMLYDSDSQQIRNRLRERVSGSTAQSAD
In the case of B3, the binding result in test [2] is “binds”.

B4: Taz1RBM V387R (domain or fragment, S. pombe, UniProt P79005 365-396, looked up)
chain: LSVKGMLYDSDSQQILNRLRERRSGSTAQSAD
Regarding B4, the binding result in test [2] is reported as “binds”.

B5: S. cerevisiae Sir3RBM (Sir3 residues 456-481) (peptide, UniProt P06701 456-481, looked up)
chain: EKGNAKMIDFATLSKLKKKYQIILDR
In the case of B5, the Kd in test [3] is ~1800 nM.

B6: full-length TRF2 protein (natural protein)
chain: MAGGGGSSDGSGRAAGRRASRSSGRARRGRHEPGLGGPAERGAGEARLEEAVNRWVLKFYFHEALRAFRGSRYGDFRQIRDIMQALLVRPLGKEHTVSRLLRVMQCLSRIEEGENLDCSFDMEAELTPLESAINVLEMIKTEFTLTEAVVESSRKLVKEAAVIICIKNKEFEKASKILKKHMSKDPTTQKLRNDLLNIIREKNLAHPVIQNFSYETFQQKMLRFLESHLDDAEPYLLTMAKKALKSESAASSTGKEDKQPAPGPVEKPPREPARQLRNPPTTIGMMTLKAAFKTLSGAQDSEAAFAKLDQKDLVLPTQALPASPALKNKRPRKDENESSAPADGEGGSELQPKNKRMTISRLVLEEDSQSTEPSAGLNSSQEAASAPPSKPTVLNQPLPGEKNPKVPKGKWNSSNGVEEKETWVEEDELFQVQAAPDEDSTTNITKKQKWTVEESEWVKAGVQKYGEGNWAAISKNYPFVNRTAVMIKDRWRTMKRLGMN
In the case of B6, in test [1], the Kd was determined as 23.9 nM.
